Changes are numbered by the printed parent chain. Names and notes keep the numbering of the source. Values joined by “and” are separate entries in the source; they are usually repeats but may differ in a detail not shown here. Identical values can stand only once.
B1: ADWA11 VH05/VK01 Fab with N57Q in VH (Fab, V domains shown)
VH: EVQLVESGGGLVQPGGSLRLSCAASGFNIKDYYMNWVRQAPGKGLEWVGWIDPDNGQTIYDPKFQGRFTISADTSKNSAYLQMNSLRAEDTAVYYCARRLLMDYWGQGTLVTVSS
VL: DIQMTQSPSSLSASVGDRVTITCRSTKSLLHFNGNTYLFWYQQKPGKAPKRLIYYMSNLASGVPSRFSGSGSGTDFTLTISSLQPEDFATYYCMQSLEYPFTFGQGTKVEIK
B2: ADWA11 VH05/VK01 Fab with P62A in VH (Fab, V domains shown)
VH: B1 VH with Q57N, P62A
VL: B1 VL
B3: ADWA11 VH05/VK01 Fab with K30A in VH (Fab, V domains shown)
VH: B1 VH with K30A, Q57N
VL: B1 VL
B4: ADWA11 VH05/VK01 Fab with N55Q in VH (Fab, V domains shown)
VH: B1 VH with N55Q, Q57N
VL: B1 VL
B5: ADWA11 VH05/VK01 Fab with K63A in VH (Fab, V domains shown)
VH: B1 VH with Q57N, K63A
VL: B1 VL
B6: ADWA11 VH05/VK01 Fab with D61E in VH (Fab, V domains shown)
VH: B1 VH with Q57N, D61E
VL: B1 VL
B7: ADWA11 2.1 Fab (Fab, V domains shown)
VH: B1 VH with N55Q, Q57N, D61E
VL: B1 VL with L30S, M94Q, Q105G
B8: ADWA11 2.1 (F64V) Fab (Fab, V domains shown)
VH: B1 VH with N55Q, Q57N, D61E, F64V
VL: B1 VL with L30S, M94Q, Q105G
B9: ADWA11 2.2 Fab (Fab, V domains shown)
VH: B1 VH with N55Q, Q57N, D61E
VL: B1 VL with L30S, L97Y, Q105G
B10: ADWA11 VH05-2/VK01 Fab (parental) (Fab, V domains shown)
VH: B1 VH with N55Q, Q57N, D61E
VL: B1 VL
B11: ADWA11 2.3 (F64V) Fab (Fab, V domains shown)
VH: B1 VH with N55Q, Q57N, D61E, F64V
VL: B1 VL with L30S, M56A, M94Q, Q105G
B12: ADWA11 2.3 Fab (Fab, V domains shown)
VH: B1 VH with N55Q, Q57N, D61E
VL: B1 VL with L30S, M56A, M94Q, Q105G
B13: ADWA11 2.4 (F64V) Fab (Fab, V domains shown)
VH: B1 VH with N55Q, Q57N, D61E, F64V
VL: B1 VL with L30S, N58S, M94Q, Q105G
B14: ADWA11 VH01/VK01 Fab (Fab, V domains shown)
VH: B1 VH with G49A, Q57N, A72R, T74N, S75A, A79L
VL: B1 VL
B15: ADWA11 VH03/VK02 Fab (Fab, V domains shown)
VH: B1 VH with Q57N, T74N, S75A
VL: B1 VL with Y41F
B16: ADWA11 VH02/VK01 Fab (Fab, V domains shown)
VH: B1 VH with G49A, Q57N, T74N, S75A, A79L
VL: B1 VL
B17: ADWA11 VH03/VK01 Fab (Fab, V domains shown)
VH: B1 VH with Q57N, T74N, S75A
VL: B1 VL
B18: ADWA11 VH05-2/VK01 Fab with M56A in VL (Fab, V domains shown)
VH: B1 VH with N55Q, Q57N, D61E
VL: B1 VL with M56A
B19: ADWA11 VH05-2/VK01 Fab with N58S in VL (Fab, V domains shown)
VH: B1 VH with N55Q, Q57N, D61E
VL: B1 VL with N58S
B20: ADWA11 VH02/VK01 IgG (antibody, V domains shown)
VH: B1 VH with G49A, Q57N, T74N, S75A, A79L
VL: B1 VL
B21: ADWA11 VH03/VK01 IgG (antibody, V domains shown)
VH: B1 VH with Q57N, T74N, S75A
VL: B1 VL
B22: ADWA11 VH01/VK01 IgG (antibody, V domains shown)
VH: B1 VH with G49A, Q57N, A72R, T74N, S75A, A79L
VL: B1 VL
B23: ADWA11 VH03/VK02 IgG (antibody, V domains shown)
VH: B1 VH with Q57N, T74N, S75A
VL: B1 VL with Y41F
B24: ADWA11 VH05-2/VK01 Fab with Q105G in VL (Fab, V domains shown)
VH: B1 VH with N55Q, Q57N, D61E
VL: B1 VL with Q105G
B25: ADWA11 VH05-2/VK01 Fab with L30S in VL (Fab, V domains shown)
VH: B1 VH with N55Q, Q57N, D61E
VL: B1 VL with L30S
B26: ADWA11 VH05-2/VK01 Fab with F101L in VL (Fab, V domains shown)
VH: B1 VH with N55Q, Q57N, D61E
VL: B1 VL with F101L
B27: ADWA11 VH05-2/VK01 Fab with L97Y in VL (Fab, V domains shown)
VH: B1 VH with N55Q, Q57N, D61E
VL: B1 VL with L97Y
B28: ADWA11 VH05-2/VK01 Fab with F64V in VH (Fab, V domains shown)
VH: B1 VH with N55Q, Q57N, D61E, F64V
VL: B1 VL
B29: ADWA11 VH05-2/VK01 Fab with M94Q in VL (Fab, V domains shown)
VH: B1 VH with N55Q, Q57N, D61E
VL: B1 VL with M94Q

Target: recombinant human αvβ8 integrin (human) (UniProt P06756)
Test: ELISA (DELFIA counts) on human αvβ8, Fab titration

Chain of recombinant human αvβ8 integrin (human) (P06756 31-992 limits assumed, form in doubt, chain 1 of 2): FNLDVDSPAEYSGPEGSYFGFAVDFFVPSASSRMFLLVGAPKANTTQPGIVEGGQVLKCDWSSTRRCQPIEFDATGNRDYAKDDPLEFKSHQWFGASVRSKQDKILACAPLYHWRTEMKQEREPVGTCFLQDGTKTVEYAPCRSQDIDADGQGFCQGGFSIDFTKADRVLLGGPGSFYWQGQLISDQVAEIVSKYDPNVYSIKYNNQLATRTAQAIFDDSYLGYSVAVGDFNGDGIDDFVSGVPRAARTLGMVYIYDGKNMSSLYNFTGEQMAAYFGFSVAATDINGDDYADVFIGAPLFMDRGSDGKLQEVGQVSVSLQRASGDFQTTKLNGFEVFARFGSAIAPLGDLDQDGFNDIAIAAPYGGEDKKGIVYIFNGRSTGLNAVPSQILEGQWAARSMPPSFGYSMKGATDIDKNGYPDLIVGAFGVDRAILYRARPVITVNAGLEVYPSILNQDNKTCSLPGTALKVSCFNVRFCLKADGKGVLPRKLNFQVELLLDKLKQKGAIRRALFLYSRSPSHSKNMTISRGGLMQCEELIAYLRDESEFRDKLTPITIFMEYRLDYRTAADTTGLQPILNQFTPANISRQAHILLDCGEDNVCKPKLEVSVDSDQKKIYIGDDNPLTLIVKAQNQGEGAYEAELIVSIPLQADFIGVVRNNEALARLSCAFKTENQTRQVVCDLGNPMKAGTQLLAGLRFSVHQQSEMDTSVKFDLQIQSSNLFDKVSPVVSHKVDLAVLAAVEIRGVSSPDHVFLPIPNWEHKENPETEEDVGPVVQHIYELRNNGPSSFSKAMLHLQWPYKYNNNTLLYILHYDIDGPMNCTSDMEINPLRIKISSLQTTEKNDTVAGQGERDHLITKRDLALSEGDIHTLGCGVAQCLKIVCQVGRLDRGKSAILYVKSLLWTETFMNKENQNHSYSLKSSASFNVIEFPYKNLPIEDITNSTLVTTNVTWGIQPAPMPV
Chain of recombinant human αvβ8 integrin (human) (chain, as listed by the source limits assumed, form in doubt, chain 2 of 2): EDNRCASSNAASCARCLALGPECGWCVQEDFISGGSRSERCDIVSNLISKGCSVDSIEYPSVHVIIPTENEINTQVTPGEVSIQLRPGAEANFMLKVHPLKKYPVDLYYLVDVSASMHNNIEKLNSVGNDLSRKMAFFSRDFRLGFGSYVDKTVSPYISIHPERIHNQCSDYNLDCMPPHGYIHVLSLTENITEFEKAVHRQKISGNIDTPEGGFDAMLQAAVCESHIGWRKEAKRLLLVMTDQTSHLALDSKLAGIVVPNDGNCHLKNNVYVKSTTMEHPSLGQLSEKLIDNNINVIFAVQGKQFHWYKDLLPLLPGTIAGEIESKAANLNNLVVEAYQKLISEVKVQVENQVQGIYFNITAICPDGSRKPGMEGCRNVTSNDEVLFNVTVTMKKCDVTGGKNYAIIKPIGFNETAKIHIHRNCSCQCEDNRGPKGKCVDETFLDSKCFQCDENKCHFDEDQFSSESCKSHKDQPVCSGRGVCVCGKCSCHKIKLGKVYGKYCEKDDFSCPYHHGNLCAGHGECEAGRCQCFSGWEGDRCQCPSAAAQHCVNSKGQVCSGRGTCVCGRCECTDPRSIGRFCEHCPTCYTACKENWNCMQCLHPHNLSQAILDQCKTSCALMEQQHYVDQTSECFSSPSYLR

Q: How did the EC50 (read off the curve) turn out when B1 was run?
A: Its EC50 (read off the curve) is 1000 pM.

Q: For B2, which EC50 (read off the curve) is on record?
A: Its EC50 (read off the curve) is 1000 pM.

Q: Which EC50 (read off the curve) does the source give for B3 here?
A: Its EC50 (read off the curve) is 1000 pM.

Q: For B4, which EC50 (read off the curve) is on record?
A: The EC50 (read off the curve) was 1000 pM.

Q: With B5 as the binder, how does the EC50 (read off the curve) read?
A: Its EC50 (read off the curve) is 1000 pM.

Q: How did the EC50 (read off the curve) turn out when B6 was run?
A: Its EC50 (read off the curve) is 1000 pM.

Target: T1, human αvβ8 integrin on U251 cells (human, UniProt P06756 31-1048)
Test: flow cytometry, Fab binding to fixed U251 cells (MFI APC-A); EC50 unit inferred, axis Log10 [Ab] (nM)

Q: With B7 as the binder, how does the EC50 read?
A: The EC50 was 218 pM.

Q: B8 was tested. Which EC50 did it give?
A: The EC50 was 225 pM.

Q: How did the EC50 turn out when B9 was run?
A: Its EC50 is 225 pM.

Q: With B10 as the binder, how does the EC50 read?
A: The EC50 was 198 pM.

Q: For B11, which EC50 is on record?
A: Its EC50 is 280 pM.

Q: How did the EC50 turn out when B12 was run?
A: The EC50 was 452 pM.

Q: How did the EC50 turn out when B13 was run?
A: Its EC50 is 211 pM.

Target: recombinant human αvβ8 integrin (human) (UniProt P06756)
Test: SPR (Biacore), Fab affinity of Table 3

Q: B14 was tested. Which Kd did it give?
A: Its Kd is 6860 pM.

Q: B15 was tested. Which Kd did it give?
A: The Kd was 373 pM and 370 pM.

Q: With B16 as the binder, how does the Kd read?
A: The Kd was 1890 pM.

Q: Which results are given for B17?
A: Kd: 73.5 pM and < 100 pM; fold lower KD than the mouse hybridoma antibody ADWA-11: > 5 fold

Target: T1, human αvβ8 integrin on U251 cells
Test: flow cytometry, Fab binding to fixed U251 cells (ΔMFI, background subtracted); EC50 unit inferred, axis Log10 [Ab] (nM)

Q: Which EC50 does the source give for B18 here?
A: The EC50 was 205 pM.

Q: Which EC50 does the source give for B19 here?
A: The EC50 was 229 pM.

Q: B10 was tested. Which EC50 did it give?
A: The EC50 was 224 pM.

Target: T1, human αvβ8 integrin on U251 cells
Test: cell-based or functional assay

Q: For B20, which “IgG Potency TGFB Assay IC50 (pM)” value is on record?
A: Its value is 1760 pM.

Q: Which “IgG Potency TGFB Assay IC50 (pM)” value does the source give for B21 here?
A: Its value is 138 pM.

Q: B22 was tested. Which “IgG Potency TGFB Assay IC50 (pM)” value did it give?
A: The value was 8470 pM.

Q: With B23 as the binder, how does the “IgG Potency TGFB Assay IC50 (pM)” value read?
A: The value was 223 pM.

Target: T1, human αvβ8 integrin on U251 cells
Test: flow cytometry, Fab binding to fixed U251 cells (ΔMFI, background subtracted); EC50 unit inferred, axis Log10 [FAB] nM

Q: How did the EC50 turn out when B24 was run?
A: The EC50 was 486 pM.

Q: How did the EC50 turn out when B25 was run?
A: Its EC50 is 544 pM.

Q: With B26 as the binder, how does the EC50 read?
A: Its EC50 is 1560 pM.

Q: Which EC50 does the source give for B27 here?
A: Its EC50 is 544 pM.

Q: For B10, which EC50 is on record?
A: Its EC50 is 613 pM.

Q: How did the EC50 turn out when B28 was run?
A: The EC50 was 588 pM.

Q: How did the EC50 turn out when B29 was run?
A: The EC50 was 641 pM.

— patent US20200079855A1 (Pfizer, published 2020)
